Data on two molecules can be found in publication PMC6599011, “Transcription factor YcjW controls the emergency H2S production in E. coli”.

Common to all, as to conditions: protein: recombinant; tags: His-SUMO (pET28-SUMO), cleaved with SUMO protease; chain copies: 2; label: 32P 5' end (T4 PNK); blunt
Series [1] concerns the target T1, YcjW (Escherichia coli K-12 MG1655, UniProt P77615 1-332).
T1 sequence: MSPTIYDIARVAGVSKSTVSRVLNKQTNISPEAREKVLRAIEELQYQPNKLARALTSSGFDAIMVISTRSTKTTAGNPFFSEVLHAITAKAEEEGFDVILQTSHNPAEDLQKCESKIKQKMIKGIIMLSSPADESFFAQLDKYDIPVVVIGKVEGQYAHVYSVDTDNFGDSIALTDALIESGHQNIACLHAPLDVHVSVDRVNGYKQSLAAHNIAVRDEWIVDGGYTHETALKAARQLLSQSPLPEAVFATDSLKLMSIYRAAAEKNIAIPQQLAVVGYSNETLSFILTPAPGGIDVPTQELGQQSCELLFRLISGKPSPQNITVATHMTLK
Put plainly: EMSA; shift from DNA:protein 1:0.5; no free probe at 1:2; EMSA with 32P-labelled dsDNA; binding buffer as in cited ref 14, not given; sugars preincubated with protein 20 min at room temperature; protein stored in 20 mM Tris-Cl pH 8.0, 50 mM NaCl, 1 mM DTT. (In EMSA bound probe runs differently from free probe, usually more slowly.)

The target of series [2] is T2, YcjW S258N (Escherichia coli K-12 MG1655, UniProt P77615 1-332, S258N).
T2 sequence: T1 sequence with S258N
Described as above.

In series [3] the target is T1, YcjW. The series can be described thus: EMSA; shift from about 1:0.5 DNA:protein, increasing with protein; EMSA with 32P-labelled dsDNA; binding buffer as in cited ref 14, not given; sugars preincubated with protein 20 min at room temperature; protein stored in 20 mM Tris-Cl pH 8.0, 50 mM NaCl, 1 mM DTT.

Numbering of substitutions follows the chain as printed.

B1: narP EMSA probe (LL62/LL63) (dsDNA)
DNA 1: GGTAACATTCACGCGCCTGGTAGCGTTACCAACGCTACGCTCAAACATAATGATTC
DNA 2: GAATCATTATGTTTGAGCGTAGCGTTGGTAACGCTACCAGGCGCGTGAATGTTACC
Take B1: the binding result in series [1] and in series [2] was “binds” in each case.

B2: ycjM EMSA probe (LL58/LL59) (dsDNA)
DNA 1: GAGTAGTCTCTCGTTTCATGGGACCGCTACCACGGAAAGGCAACATGAAAC
DNA 2: GTTTCATGTTGCCTTTCCGTGGTAGCGGTCCCATGAAACGAGAGACTACTC
Take B2: the binding result in series [3] was “binds”.
